Values quoted from earlier work in publication PMC4501269 (Biochemistry, 2011).
pKd: −log10 of the molar value. Read-outs that look alike come from different tables or passages of the source. One block for each compound: values may come before it.

Columns and labels:
SRC-1 (Homo sapiens) [1] = target: SRC-1 (Homo sapiens) (UniProt Q15788)
SRC-1 (Homo sapiens) [2] = target: SRC-1 (Homo sapiens) (UniProt Q15788); remark: listed apart in the source
SRC-1 (Homo sapiens) [3] = target: SRC-1 (Homo sapiens) (UniProt Q15788); assay: fluorescence polarization
SRC-2 (Homo sapiens) [4] = target: SRC-2 (Homo sapiens) (UniProt Q15596); assay: fluorescence cross-correlation spectroscopy
Chain of SRC-2 (Homo sapiens) (Q15596 2-1464): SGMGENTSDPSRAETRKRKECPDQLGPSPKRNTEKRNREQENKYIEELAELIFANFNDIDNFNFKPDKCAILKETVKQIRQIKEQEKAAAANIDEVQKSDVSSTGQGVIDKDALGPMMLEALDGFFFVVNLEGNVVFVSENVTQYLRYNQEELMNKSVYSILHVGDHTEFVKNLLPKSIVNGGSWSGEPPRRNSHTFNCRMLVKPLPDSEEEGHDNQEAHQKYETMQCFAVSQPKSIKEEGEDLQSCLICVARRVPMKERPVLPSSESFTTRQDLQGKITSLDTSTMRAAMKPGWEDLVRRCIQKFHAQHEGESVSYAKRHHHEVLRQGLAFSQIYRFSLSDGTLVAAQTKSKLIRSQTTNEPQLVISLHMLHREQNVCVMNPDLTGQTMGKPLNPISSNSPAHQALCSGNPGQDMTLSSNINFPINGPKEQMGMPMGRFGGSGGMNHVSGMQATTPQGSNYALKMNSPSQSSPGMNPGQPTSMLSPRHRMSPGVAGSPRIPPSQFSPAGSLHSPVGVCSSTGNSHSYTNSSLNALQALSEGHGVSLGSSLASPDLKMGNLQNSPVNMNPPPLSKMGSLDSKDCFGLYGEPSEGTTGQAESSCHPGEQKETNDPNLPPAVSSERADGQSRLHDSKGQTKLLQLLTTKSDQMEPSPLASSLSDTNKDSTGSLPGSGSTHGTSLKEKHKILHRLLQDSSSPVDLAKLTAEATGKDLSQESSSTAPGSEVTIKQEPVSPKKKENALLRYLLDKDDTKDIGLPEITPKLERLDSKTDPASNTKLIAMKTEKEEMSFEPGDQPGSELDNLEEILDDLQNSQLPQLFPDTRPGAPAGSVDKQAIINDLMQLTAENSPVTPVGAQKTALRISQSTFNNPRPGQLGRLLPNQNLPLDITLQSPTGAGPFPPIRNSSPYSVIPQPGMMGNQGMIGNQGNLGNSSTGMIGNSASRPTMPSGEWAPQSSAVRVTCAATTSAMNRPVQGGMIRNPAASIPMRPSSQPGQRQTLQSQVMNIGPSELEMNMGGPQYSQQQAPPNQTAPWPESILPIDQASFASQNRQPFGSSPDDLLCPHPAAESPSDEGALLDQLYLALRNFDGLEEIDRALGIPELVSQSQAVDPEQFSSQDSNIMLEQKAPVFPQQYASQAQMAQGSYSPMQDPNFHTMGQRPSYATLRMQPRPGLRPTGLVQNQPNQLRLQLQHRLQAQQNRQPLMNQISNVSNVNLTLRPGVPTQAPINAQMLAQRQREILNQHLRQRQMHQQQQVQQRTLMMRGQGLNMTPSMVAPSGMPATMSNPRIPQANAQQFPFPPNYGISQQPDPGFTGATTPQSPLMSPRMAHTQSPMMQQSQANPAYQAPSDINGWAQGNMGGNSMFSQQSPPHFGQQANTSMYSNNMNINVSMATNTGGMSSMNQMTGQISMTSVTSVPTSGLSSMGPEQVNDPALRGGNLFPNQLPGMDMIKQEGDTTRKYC

SRC-2 (Homo sapiens) [5] = target: SRC-2 (Homo sapiens) (UniProt Q15596); assay: fluorescence cross-correlation spectroscopy; remark: listed apart in the source
SRC-2 (Homo sapiens) [6] = target: SRC-2 (Homo sapiens) (UniProt Q15596); assay: fluorescence cross-correlation spectroscopy; remark: listed apart in the source

Chain of SRC-1 (Homo sapiens) (Q15788 2-1441): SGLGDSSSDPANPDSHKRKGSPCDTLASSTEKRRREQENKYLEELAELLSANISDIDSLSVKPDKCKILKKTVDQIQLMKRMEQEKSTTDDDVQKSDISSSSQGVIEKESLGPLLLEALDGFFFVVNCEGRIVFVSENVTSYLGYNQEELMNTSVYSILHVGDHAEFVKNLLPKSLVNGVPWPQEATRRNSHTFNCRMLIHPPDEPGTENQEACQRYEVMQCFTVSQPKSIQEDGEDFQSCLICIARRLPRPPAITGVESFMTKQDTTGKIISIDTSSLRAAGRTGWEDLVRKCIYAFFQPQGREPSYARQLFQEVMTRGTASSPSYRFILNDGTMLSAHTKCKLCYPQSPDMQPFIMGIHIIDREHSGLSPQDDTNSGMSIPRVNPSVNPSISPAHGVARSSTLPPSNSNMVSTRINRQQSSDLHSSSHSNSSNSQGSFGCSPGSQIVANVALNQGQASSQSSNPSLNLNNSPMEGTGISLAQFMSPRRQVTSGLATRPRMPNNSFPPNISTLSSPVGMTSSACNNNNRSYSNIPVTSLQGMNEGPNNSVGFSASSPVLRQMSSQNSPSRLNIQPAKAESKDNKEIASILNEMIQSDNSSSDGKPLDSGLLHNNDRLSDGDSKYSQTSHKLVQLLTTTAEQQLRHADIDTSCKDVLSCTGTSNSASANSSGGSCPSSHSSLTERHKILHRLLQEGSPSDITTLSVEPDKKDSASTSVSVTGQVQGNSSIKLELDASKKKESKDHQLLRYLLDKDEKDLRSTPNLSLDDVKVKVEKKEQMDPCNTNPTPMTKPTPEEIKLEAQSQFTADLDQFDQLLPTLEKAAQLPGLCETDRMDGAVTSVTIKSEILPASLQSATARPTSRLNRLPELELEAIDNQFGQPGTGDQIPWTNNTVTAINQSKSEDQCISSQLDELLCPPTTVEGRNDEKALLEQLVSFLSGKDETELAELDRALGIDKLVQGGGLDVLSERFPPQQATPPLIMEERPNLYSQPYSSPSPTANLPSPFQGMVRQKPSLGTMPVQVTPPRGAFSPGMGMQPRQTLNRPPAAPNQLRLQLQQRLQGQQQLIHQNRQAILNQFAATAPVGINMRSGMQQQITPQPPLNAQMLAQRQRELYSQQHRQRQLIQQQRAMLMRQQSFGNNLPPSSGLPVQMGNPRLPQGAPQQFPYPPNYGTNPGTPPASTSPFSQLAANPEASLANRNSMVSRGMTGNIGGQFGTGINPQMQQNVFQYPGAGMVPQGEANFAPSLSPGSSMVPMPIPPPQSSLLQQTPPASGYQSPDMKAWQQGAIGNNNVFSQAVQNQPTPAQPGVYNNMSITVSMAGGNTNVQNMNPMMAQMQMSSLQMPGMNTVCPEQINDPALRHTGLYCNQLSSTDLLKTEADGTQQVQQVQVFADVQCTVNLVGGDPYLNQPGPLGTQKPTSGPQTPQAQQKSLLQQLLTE
Chain of estrogen receptor (P03372 whole entry): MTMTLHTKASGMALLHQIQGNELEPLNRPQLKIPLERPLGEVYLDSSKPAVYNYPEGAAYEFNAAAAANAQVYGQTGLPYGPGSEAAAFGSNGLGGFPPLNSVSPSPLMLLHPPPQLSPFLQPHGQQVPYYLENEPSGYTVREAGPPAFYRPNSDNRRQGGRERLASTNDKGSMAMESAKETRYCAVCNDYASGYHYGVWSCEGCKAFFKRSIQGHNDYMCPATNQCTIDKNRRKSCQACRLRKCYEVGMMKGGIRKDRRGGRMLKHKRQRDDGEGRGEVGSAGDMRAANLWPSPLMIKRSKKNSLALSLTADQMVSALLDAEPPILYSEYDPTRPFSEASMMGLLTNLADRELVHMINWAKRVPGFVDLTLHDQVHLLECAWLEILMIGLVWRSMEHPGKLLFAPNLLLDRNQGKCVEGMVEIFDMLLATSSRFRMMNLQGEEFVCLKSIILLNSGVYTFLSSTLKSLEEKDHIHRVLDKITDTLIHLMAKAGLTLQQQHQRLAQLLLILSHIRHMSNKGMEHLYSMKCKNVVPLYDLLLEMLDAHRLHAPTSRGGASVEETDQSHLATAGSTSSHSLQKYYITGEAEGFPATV
Chain of PPARγ (from UniProt P37231) (P37231 whole entry): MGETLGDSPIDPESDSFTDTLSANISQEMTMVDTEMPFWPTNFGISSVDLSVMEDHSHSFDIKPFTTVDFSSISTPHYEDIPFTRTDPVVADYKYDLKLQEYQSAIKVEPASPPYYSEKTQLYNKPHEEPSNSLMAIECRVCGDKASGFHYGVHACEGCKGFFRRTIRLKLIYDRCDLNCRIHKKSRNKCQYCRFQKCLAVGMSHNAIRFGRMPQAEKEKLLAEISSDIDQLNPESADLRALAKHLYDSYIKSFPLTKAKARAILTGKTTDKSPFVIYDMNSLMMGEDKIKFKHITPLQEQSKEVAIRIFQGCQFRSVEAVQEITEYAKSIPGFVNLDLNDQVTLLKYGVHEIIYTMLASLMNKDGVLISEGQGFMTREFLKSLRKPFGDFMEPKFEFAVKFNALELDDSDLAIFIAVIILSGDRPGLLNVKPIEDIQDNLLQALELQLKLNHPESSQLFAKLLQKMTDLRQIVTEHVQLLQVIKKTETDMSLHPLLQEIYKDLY
Chain of estrogen receptor LBD (P03372 311-547): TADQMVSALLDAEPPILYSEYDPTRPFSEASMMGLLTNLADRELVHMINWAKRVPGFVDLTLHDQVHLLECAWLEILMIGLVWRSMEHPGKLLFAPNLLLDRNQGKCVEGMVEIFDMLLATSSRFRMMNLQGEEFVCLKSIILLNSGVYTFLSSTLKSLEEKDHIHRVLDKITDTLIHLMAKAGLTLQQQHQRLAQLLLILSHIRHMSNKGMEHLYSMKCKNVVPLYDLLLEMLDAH

Compound: COc1ccc2c(c1)c(CC(=O)O)c(C)n2C(=O)c1ccc(Cl)cc1 [IDM, indomethacin]
increase in the affinity of PPARγ for SRC-1 (PPARγ): 30 fold

pKd (SRC-1 (Homo sapiens) [1]): 6.02
pKd (SRC-1 (Homo sapiens) [2]): 4.47
Compound: PPARγ (from UniProt P37231)

pKd (SRC-1 (Homo sapiens) [3]): 7.52
pKd (SRC-2 (Homo sapiens) [4]): > 8.22
pKd (SRC-2 (Homo sapiens) [5]): < 5.52
pKd (SRC-2 (Homo sapiens) [6]): 6.70
Compound: estrogen receptor (from UniProt P03372)

pKd (SRC-1 (Homo sapiens) [3]): 7.52
Compound: estrogen receptor LBD (from UniProt P03372)
